Experiment [1] addresses T1, His-DLL3胞外区蛋白 (Human DLL3 Protein, His Tag, ACRO DL3-H52H4) (human, UniProt Q9NYJ7 27-492).
T1 construct: extracellular domain; Bought protein; also called DLL3-His; DLL3抗原; not shown: His tag
T1 sequence (looked up): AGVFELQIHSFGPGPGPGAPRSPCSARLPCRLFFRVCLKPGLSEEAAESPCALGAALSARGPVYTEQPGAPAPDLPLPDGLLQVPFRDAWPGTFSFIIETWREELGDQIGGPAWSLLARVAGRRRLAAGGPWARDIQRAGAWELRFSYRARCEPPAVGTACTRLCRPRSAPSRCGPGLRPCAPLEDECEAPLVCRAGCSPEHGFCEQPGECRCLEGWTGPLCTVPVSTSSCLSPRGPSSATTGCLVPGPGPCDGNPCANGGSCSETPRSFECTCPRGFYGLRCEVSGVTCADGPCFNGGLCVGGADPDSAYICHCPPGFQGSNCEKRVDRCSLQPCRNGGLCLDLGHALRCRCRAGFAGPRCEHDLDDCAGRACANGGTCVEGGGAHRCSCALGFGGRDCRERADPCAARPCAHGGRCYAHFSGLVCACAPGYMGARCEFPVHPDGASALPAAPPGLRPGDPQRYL
The experiment in a line: phage ELISA, scFv shown on M13 phage, coated DLL3-His 1 ug/ml, anti-M13-HRP.

In experiment [2] the target is T2, BSA(牛血清白蛋白) (bovine, UniProt P02769 25-607). As to the kind of experiment: ELISA, periplasmic extract with soluble scFv on coated BSA, anti-c-myc-HRP detection.
Experiment [3] has as its target T2, BSA(牛血清白蛋白). As to the kind of experiment: ELISA, 293T culture supernatant on coated BSA, anti-human IgG-Fc-HRP detection. For orientation: In an ELISA, binding on a coated surface is turned into a signal by an enzyme label.
Experiment [4] concerns the target T1, His-DLL3胞外区蛋白 (Human DLL3 Protein, His …). The experiment in a line: ELISA, 293T culture supernatant, coated DLL3-His 1 ug/ml, anti-human IgG-Fc-HRP.
The target of experiment [5] is T3, 小细胞肺癌细胞系SHP-77上表达的DLL3抗原 (UniProt Q9NYJ7 27-618).
T3 construct: whole, on cells; Endogenous DLL3 on SHP-77 cells; also called DLL3 on SHP-77 cells
T3 sequence (looked up): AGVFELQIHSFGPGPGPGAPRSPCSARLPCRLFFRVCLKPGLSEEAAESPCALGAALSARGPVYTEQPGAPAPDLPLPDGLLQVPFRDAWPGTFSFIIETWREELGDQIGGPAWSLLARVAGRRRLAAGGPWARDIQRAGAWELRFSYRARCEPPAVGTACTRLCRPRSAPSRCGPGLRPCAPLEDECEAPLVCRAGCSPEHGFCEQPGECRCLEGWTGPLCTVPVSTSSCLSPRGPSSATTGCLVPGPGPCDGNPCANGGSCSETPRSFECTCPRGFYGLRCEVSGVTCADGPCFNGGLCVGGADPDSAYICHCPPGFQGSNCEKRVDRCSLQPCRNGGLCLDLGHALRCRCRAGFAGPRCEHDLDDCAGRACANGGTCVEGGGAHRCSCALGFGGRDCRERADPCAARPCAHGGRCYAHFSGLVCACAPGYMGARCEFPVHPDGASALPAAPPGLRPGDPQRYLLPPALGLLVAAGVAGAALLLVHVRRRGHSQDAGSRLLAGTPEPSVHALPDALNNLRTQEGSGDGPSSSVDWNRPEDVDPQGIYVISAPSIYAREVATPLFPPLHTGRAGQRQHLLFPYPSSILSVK
The experiment in a line: flow cytometry on SHP-77 cells, PE anti-human Fc detection. (In general: In flow cytometry, cells or beads pass a laser one at a time.)

T2 sequence (P02769 25-607 limits assumed): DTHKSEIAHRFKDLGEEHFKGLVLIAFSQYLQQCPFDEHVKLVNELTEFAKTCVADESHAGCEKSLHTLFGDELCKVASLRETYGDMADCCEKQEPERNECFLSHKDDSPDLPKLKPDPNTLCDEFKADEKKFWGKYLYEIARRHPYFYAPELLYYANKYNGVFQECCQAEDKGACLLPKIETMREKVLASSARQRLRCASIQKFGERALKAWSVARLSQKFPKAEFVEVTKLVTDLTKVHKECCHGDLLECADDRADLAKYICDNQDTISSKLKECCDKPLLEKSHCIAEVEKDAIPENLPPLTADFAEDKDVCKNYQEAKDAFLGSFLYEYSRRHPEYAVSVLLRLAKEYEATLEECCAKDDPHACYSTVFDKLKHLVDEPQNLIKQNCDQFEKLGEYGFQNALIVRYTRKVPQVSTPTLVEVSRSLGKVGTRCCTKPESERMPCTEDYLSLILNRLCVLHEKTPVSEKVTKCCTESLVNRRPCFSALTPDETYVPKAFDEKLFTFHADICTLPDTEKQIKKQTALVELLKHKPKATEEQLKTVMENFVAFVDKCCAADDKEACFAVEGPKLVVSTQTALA

B1: 抗DLL3 scFv A7 (A7-scFv) (scFv)
scFv: QVQLVQSGAEVKKPGASVKVSCKASGYTFTSYYMHWVRQAPGQGLEWMGIINPSGGSTSYAKKFQGRVTMTRDTSTSTVYMELNRVTSDDTAVYYCARGGGVTGFDYWGQGTLVTVSSGSASAPTLGGGGSGGGGSGGGGSDIQMTQSPSSLSASLGDRVTITCRASQTVRTYLNWYQQKPGKAPNLLIYGASSLQSGVPSRFSGSGSGTDFTLTINSLQPEDFGTYYCQQSDTPPLTFGGGTKVEIK
notes: Fully human scFv from a phage library; also called 抗DLL3阳性克隆A7; 抗DLL3可溶性抗体A7
In the case of B1, the values for the binding result in experiment [1] and in experiment [2] were “binds” and “no binding”, respectively.

B2: A7 scFv-hFc (Fc fusion)
chain: QVQLVQSGAEVKKPGASVKVSCKASGYTFTSYYMHWVRQAPGQGLEWMGIINPSGGSTSYAKKFQGRVTMTRDTSTSTVYMELNRVTSDDTAVYYCARGGGVTGFDYWGQGTLVTVSSGSASAPTLGGGGSGGGGSGGGGSDIQMTQSPSSLSASLGDRVTITCRASQTVRTYLNWYQQKPGKAPNLLIYGASSLQSGVPSRFSGSGSGTDFTLTINSLQPEDFGTYYCQQSDTPPLTFGGGTKVEIK
notes: Expressed in 293T cells and tested as culture supernatant; also called A7 scFv-hFc重组蛋白; 抗DLL3单链抗体(scFv-hFc); not shown: human IgG1 Fc segment from the mammalian expression vector PUTAM003
Turning to B2, the values for the binding result in experiment [3], in experiment [4] and in experiment [5] were “no binding”, “binds” and “binds”, respectively.

B3: 抗DLL3 scFv G8 (G8-scFv) (scFv)
scFv: QVQLQQSGPGLVKPSQTLSLTCAISGDSVSSDSVAWSWIRQSPSRGLEWLGRTYYRSKWYYDYAASVKSRISINPDTSKNQFSLQLNSVTPEDTAVYYCAREPLRYGSSWWDAFDIWGQGTMITVSSGSASAPTLGGGGSGGGGSGGGGSQSALTQPPSVSGSPGQAVTISCTGTSSDVGRYNYVSWYQQHPGKVPKLILFDVSSRPSGVSHRFSGSKSGNTASLTISGLQAEDEADYYCTSYRSGSEVFGGGTKLTVL
notes: Fully human scFv from a phage library; also called 抗DLL3阳性克隆G8; 抗DLL3可溶性抗体G8
On to B3, for which the figures for the binding result in experiment [1] and in experiment [2] were “binds” and “no binding”, respectively.

B4: G8 scFv-hFc (Fc fusion)
chain: QVQLQQSGPGLVKPSQTLSLTCAISGDSVSSDSVAWSWIRQSPSRGLEWLGRTYYRSKWYYDYAASVKSRISINPDTSKNQFSLQLNSVTPEDTAVYYCAREPLRYGSSWWDAFDIWGQGTMITVSSGSASAPTLGGGGSGGGGSGGGGSQSALTQPPSVSGSPGQAVTISCTGTSSDVGRYNYVSWYQQHPGKVPKLILFDVSSRPSGVSHRFSGSKSGNTASLTISGLQAEDEADYYCTSYRSGSEVFGGGTKLTVL
notes: Expressed in 293T cells and tested as culture supernatant; also called G8 scFv-hFc重组蛋白; not shown: human IgG1 Fc segment from the mammalian expression vector PUTAM003
In the case of B4, the figures for the binding result in experiment [3], in experiment [4] and in experiment [5] were “no binding”, “binds” and “binds”, respectively.

These data come from patent CN114181311A (dated 2022).
